cellulose membrane = not defined here
Assays:
Assay in all cases: SPOT peptide array (13-mers on cellulose membrane), Western-type detection, spot intensity by LumiImager
[1] = target: T1, 12th of the 82 13-mer peptides covering the extracellular region of CD40 (reading uncertain)
T1 construct: also called 12th peptide
T1 peptide: Ac-PGQKLVSDCTEFT-{cellulose membrane}
Experimental: (§1) The reaction thereafter was carried out based on a conventional Western analysis (see Reineke, U. et al. (2001), “Epitope mapping with synthetic peptides prepared by SPOT synthesis.” Antibody Engineering (Springer Lab Manual) Eds.: Kontermann/Dubel, 433-459, for example). In the analysis, coloring intensity of each spot was quantified using Lumilmager™ (Boehringer-Mannheim Corp.) (FIG. 1A-1, 1A-2, 1B-1 and B-2).

[2] = target: T2, 13th of the 82 13-mer peptides covering the extracellular region of CD40 (reading uncertain)
T2 construct: also called 13th peptide
T2 peptide: Ac-QKLVSDCTEFTET-{cellulose membrane}
Experimental: as §1

[3] = target: T3, 14th of the 82 13-mer peptides covering the extracellular region of CD40 (cysteine pairing not given here; reading uncertain)
T3 construct: also called 14th peptide
T3 peptide: Ac-LVSDCTEFTETEC-{cellulose membrane}
Experimental: as §1

[4] = target: T4, 15th of the 82 13-mer peptides covering the extracellular region of CD40 (cysteine pairing not given here; reading uncertain)
T4 construct: also called 15th peptide
T4 peptide: Ac-SDCTEFTETECLP-{cellulose membrane}
Experimental: as §1

[5] = target: T5, 16th of the 82 13-mer peptides covering the extracellular region of CD40 (cysteine pairing not given here; reading uncertain)
T5 construct: also called 16th peptide
T5 peptide: Ac-CTEFTETECLPCG-{cellulose membrane}
Experimental: as §1

[6] = target: T6, 17th of the 82 13-mer peptides covering the extracellular region of CD40 (cysteine pairing not given here; reading uncertain)
T6 construct: also called 17th peptide
T6 peptide: Ac-EFTETECLPCGES-{cellulose membrane}
Experimental: as §1

[7] = target: T7, 18th of the 82 13-mer peptides covering the extracellular region of CD40 (cysteine pairing not given here; reading uncertain)
T7 construct: also called 18th peptide
T7 peptide: Ac-TETECLPCGESEF-{cellulose membrane}
Experimental: as §1

[8] = target: T8, 19th of the 82 13-mer peptides covering the extracellular region of CD40 (cysteine pairing not given here; reading uncertain)
T8 construct: also called 19th peptide
T8 peptide: Ac-TECLPCGESEFLD-{cellulose membrane}
Experimental: as §1

[9] = target: T9, 20th of the 82 13-mer peptides covering the extracellular region of CD40 (cysteine pairing not given here; reading uncertain)
T9 construct: also called 20th peptide
T9 peptide: Ac-CLPCGESEFLDTW-{cellulose membrane}
Experimental: as §1

[10] = target: T10, 21st of the 82 13-mer peptides covering the extracellular region of CD40 (reading uncertain)
T10 construct: also called 21st peptide
T10 peptide: Ac-PCGESEFLDTWNR-{cellulose membrane}
Experimental: as §1

[11] = target: T11, 22nd of the 82 13-mer peptides covering the extracellular region of CD40 (reading uncertain)
T11 construct: also called 22nd peptide
T11 peptide: Ac-GESEFLDTWNRET-{cellulose membrane}
Experimental: as §1

[12] = target: T12, 23rd of the 82 13-mer peptides covering the extracellular region of CD40 (reading uncertain)
T12 construct: also called 23rd peptide
T12 peptide: Ac-SEFLDTWNRETHC-{cellulose membrane}
Experimental: as §1

[13] = target: T13, 64th of the 82 13-mer peptides covering the extracellular region of CD40 (reading uncertain)
T13 construct: also called 64th peptide
T13 peptide: Ac-PVGFFSNVSSAFE-{cellulose membrane}
Experimental: as §1

Measured: binding result

B1: 2105 antibody (original IgG2) (antibody, V domains shown)
VH: EVQLVESGGGLVQPGRSLRLSCAASGFTFDDYAMHWVRQAPGKGLEWVSGISWNSGSLVHADSVKGRFTISRDNAKNSLYLQMNSLRAEDTALYYCARDRLFRGVRYYGMDVWGQGTTVTVSS
VL: EIVLTQSPATLSLSPGERATLSCRASQSVSSYLAWYQQKPGQAPRLLIYDASNRATGIPARFSGSGSGTDFTLTISSLEPEDFAVYYCQQRSHWLTFGGGTKVEIK
binds: [1] | [2] | [3] | [4] | [5] | [6] | [7] | [8] | [9] | [10] | [11] | [12] | [13]

Reference: patent US20070148163A1 (Kyowa Kirin, published 2007)
